Results as given in article PMC12903045.

Biological target: NaV1.5 (main cardiac voltage-gated sodium channel) (mouse (endogenous in heart)) (UniProt Q9JJV9)
Assay: co-IP

Chain of UniProt Q9JJV9 (Q9JJV9 whole entry): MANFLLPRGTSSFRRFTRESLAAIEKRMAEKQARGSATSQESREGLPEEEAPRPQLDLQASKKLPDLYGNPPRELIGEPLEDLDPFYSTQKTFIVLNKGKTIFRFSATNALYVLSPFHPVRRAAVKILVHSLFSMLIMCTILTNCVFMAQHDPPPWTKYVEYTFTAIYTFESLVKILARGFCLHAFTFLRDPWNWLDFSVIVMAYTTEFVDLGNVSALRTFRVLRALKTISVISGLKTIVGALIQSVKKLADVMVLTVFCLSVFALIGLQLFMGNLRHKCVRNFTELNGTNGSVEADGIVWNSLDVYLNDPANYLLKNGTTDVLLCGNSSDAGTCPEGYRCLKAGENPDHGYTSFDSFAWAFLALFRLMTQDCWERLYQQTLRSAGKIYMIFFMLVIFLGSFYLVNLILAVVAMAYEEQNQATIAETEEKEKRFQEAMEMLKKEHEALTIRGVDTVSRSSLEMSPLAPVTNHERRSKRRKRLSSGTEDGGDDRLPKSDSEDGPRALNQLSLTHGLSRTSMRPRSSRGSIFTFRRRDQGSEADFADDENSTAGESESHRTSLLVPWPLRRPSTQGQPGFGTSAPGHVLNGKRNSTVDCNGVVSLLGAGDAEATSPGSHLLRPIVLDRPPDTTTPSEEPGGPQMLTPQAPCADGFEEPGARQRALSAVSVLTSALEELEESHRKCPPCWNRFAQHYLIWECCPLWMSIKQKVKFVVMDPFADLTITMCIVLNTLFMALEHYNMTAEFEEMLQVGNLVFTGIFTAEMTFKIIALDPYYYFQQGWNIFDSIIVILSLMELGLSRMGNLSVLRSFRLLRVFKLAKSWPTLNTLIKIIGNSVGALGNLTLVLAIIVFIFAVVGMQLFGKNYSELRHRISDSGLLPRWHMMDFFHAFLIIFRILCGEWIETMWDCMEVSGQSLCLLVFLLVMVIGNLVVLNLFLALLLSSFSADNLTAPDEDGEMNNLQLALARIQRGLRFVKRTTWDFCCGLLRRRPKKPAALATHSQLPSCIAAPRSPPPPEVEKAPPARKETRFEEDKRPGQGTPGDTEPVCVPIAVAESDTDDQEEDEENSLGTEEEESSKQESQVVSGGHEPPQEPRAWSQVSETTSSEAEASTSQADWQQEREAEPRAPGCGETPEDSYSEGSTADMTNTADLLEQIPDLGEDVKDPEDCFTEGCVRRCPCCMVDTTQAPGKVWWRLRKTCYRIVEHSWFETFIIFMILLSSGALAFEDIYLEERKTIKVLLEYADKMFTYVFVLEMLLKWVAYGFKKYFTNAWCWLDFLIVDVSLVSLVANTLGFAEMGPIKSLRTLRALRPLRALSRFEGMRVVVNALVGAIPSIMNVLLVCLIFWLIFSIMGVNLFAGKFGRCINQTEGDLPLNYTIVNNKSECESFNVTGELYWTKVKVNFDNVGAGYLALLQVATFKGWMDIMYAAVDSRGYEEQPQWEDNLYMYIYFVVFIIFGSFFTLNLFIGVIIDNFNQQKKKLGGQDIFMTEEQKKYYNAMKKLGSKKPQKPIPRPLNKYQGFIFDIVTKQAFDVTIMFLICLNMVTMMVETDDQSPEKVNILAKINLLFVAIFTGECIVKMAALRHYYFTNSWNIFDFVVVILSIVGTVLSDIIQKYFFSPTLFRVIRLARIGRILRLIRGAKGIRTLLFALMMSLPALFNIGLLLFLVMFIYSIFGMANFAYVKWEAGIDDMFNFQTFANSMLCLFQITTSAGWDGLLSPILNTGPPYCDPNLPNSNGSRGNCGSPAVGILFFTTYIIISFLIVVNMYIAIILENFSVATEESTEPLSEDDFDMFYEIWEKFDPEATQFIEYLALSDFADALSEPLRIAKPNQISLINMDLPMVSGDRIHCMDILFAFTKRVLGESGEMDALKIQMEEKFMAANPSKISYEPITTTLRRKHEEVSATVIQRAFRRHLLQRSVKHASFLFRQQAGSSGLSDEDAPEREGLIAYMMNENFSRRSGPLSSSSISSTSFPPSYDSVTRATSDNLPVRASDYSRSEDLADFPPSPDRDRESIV

Question: With “FGF13 (fibroblast growth factor homologous factor 13) (from UniProt P70377 1-245) (natural protein)” as the substance, how does the percent of FGF13 depleted from the lysate by immunoprecipitation of NaV1.5 read?
Answer: The percent of FGF13 depleted from the lysate by immunoprecipitation of NaV1.5 was 35%.
